From publication PMC5971111 (Nature structural & molecular biology, 2018)

B1: Sec6 (natural protein)
chain: MSSDPLQQVCDLIKGDLSLERVRDIKEQLLKEKSVVEYQLNKESDKYYGEVEESLKLLNLSKNSVTSIKQQINEVNKLGNDNRFAINRYDILFRATKLYETVNTTSSIYDRIYNFVALMEHIERLLVAELAEDALETGCPHLLEIHFLLTSARDFQEQVVVMAKEATEDAQRTVMKLFSRLSGIISKFDKLLDGLTYDIVEMARAEQISLAIRLFKIYDLEEREDLRIEAIRNIIKKKEIEIEKSSIKKLPNSKNTARLQDETPKVIEYPTNKGLYQEIMSGTISTRTAPRGYKHFLINGINNSISEMFGEMREKYVGDQKFDVLDNMDWIFNELIIVKEHIANCCPPHWNIFEVYFDQYYKELHSLITDLVESEPETIIILDILAFDKTFQDTLKQDFGFTKSEVKSVIGDKEKETLFKDYLNLIVVKMTEWIGNLEKAEFDVFLERSTPPHSDSDGLLFLDGTKTCFQMFTQQVEVAAGTNQAKILVGVVERFSDLLTKRQKNWISKISEEIKKQINYNHKYDIDPESITPEDECPGGLVEYLIAVSNDQMKAADYAVAISSKYGKLVSKVYEKQITNHLEGTLDGFAEVAQCSSLGLITLMFDDLRKPYQEIFSKTWYMGSQAQQIADTLDEYLLDIKPQMNSVLFVNFIDNVIGETIIKFLTALSFEHSFKNKNNKFLEAMKRDFEIFYQLFVKVLDGNESKDTLITQNFTVMEFFMDLSCEPIDSILDIWQKYLEVYWDSRIDLLVGILKCRKDVSSSERKKIVQQATEMLHEYRRNMEANGVDREPTLMRRFVLEFEKQ
B2: Sec10 (natural protein)
chain: MNSLYELDPKWKKLLKTDNFLGGLTVNEFVQELSKDHRNDVLIDANTKNLPTNEKDQDAIREAIWKQLDPKPYIRTFESTLKELKNLNEETLNKRQYFSEQVATQEVIHSENVIKLSKDLHTTLLTFDKLDDRLTNVTQVVSPLGDKLETAIKKKQNYIQSVELIRRYNDFYSMGKSDIVEQLRLSKNWKLNLKSVKLMKNLLILSSKLETSSIPKTINTKLVIEKYSEMMENELLENFNSAYRENNFTKLNEIAIILNNFNGGVNVIQSFINQHDYFIDTKQIDLENEFENVFIKNVKFKEQLIDFENHSVIIETSMQNLINDVETVIKNESKIVKRVFEEKATHVIQLFIQRVFAQKIEPRFEVLLRNSLSISNLAYVRILHGLFTLFGKFTKSLIDYFQLLEIDDSNQILSTTLEQCFADLFSHYLYDRSKYFGIEKRSLEAILVDMTSKFTVNYDKEINKRVLLDKYKEKLSTNVDAFMHSPRGNTHSRQDSTSRSKLSQFNSFLKTHLDKDHLSLNRTNTLSDSFNNSSSSTQYDVANNSSSLVNSSFTASDIDNSPNSPANYSLNDVDSMLKCVVESTARVMELIPNKAHLYILEILKIMFLGIVDSYMEIALEVAYWKICKVDINKTAGVVNLNFLKFISMSTEILDLLSISIKSIFLPLLNNSPEIKAQIIEMTNSQIQKMEILINIILQETITVISTKFSAILCKQKKKDFVPKSQELLDQDTLPAIEIVNILNLIFEQSSKFLKGKNLQTFLTLIGEELYGLLLSHYSHFQVNSIGGVVVTKDIIGYQTAIEDWGVASLIDKFATLRELANLFTVQPELLESLTKEGHLADIGRDIIQSYISNREDFNHDNFINSVKLNFR

What was measured:
Assay in all cases: […]
[1] = target: T1, Sec3 (S. cerevisiae, UniProt P33332 1-1336)
T1 sequence: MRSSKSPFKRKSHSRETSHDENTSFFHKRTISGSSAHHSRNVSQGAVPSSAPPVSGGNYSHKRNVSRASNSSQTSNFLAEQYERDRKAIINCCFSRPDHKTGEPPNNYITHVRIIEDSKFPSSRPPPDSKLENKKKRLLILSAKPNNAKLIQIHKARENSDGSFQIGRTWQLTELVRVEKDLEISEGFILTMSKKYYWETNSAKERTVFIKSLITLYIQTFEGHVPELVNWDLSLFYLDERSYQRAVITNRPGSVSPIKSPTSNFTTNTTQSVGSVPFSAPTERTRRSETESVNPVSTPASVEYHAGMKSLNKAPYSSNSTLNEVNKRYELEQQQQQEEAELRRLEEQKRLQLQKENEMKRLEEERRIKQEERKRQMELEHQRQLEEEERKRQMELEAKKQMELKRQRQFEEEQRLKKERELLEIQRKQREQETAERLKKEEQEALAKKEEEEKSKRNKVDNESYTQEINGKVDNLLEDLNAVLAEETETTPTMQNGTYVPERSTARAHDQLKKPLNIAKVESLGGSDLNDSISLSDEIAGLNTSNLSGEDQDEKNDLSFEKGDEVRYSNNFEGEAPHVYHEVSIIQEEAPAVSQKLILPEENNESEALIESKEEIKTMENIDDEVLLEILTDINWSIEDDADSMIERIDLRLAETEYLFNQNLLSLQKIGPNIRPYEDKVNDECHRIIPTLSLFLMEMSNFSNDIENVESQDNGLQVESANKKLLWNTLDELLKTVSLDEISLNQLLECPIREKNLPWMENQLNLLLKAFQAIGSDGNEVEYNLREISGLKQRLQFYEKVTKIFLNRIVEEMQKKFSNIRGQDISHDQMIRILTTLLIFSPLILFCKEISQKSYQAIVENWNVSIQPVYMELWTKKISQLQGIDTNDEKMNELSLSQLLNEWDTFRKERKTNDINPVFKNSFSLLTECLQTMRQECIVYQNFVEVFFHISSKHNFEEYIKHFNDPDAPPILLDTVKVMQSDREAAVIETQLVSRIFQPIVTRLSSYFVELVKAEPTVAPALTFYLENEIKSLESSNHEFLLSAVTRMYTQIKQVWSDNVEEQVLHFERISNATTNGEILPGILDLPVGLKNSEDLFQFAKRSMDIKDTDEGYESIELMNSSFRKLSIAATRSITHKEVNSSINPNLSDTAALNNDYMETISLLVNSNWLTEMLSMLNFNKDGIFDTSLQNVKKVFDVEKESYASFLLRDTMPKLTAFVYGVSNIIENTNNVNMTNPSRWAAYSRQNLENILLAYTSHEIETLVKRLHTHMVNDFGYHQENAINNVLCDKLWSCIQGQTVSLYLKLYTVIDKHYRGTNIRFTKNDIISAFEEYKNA

[2] = target: T2, Sec5 (S. cerevisiae, UniProt P89102 1-971)
T2 sequence: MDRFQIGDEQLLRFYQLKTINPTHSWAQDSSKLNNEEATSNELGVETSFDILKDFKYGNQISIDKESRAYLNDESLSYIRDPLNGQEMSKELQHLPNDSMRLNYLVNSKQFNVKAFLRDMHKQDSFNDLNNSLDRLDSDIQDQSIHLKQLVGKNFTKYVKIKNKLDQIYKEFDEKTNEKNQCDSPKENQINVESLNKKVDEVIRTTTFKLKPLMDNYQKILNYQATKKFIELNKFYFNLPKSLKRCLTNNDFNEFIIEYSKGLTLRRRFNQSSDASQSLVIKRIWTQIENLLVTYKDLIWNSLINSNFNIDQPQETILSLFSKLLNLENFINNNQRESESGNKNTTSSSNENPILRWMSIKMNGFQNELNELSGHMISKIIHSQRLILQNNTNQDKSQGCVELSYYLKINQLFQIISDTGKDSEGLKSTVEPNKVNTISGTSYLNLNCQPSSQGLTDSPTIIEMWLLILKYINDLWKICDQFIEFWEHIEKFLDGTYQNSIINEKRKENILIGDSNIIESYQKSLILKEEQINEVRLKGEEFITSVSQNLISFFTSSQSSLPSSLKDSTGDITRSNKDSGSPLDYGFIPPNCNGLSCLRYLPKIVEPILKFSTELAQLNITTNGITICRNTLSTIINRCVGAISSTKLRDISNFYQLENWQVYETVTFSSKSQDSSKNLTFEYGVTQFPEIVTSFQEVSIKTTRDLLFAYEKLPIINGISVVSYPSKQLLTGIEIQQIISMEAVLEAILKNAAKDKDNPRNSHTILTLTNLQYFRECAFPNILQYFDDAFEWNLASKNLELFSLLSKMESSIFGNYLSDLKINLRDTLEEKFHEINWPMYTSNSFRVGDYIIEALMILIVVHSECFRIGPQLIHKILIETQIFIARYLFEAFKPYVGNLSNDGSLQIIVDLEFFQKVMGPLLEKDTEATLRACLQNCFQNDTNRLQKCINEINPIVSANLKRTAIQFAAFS

[3] = target: T3, Sec15 (S. cerevisiae, UniProt P22224 1-910)
T3 sequence: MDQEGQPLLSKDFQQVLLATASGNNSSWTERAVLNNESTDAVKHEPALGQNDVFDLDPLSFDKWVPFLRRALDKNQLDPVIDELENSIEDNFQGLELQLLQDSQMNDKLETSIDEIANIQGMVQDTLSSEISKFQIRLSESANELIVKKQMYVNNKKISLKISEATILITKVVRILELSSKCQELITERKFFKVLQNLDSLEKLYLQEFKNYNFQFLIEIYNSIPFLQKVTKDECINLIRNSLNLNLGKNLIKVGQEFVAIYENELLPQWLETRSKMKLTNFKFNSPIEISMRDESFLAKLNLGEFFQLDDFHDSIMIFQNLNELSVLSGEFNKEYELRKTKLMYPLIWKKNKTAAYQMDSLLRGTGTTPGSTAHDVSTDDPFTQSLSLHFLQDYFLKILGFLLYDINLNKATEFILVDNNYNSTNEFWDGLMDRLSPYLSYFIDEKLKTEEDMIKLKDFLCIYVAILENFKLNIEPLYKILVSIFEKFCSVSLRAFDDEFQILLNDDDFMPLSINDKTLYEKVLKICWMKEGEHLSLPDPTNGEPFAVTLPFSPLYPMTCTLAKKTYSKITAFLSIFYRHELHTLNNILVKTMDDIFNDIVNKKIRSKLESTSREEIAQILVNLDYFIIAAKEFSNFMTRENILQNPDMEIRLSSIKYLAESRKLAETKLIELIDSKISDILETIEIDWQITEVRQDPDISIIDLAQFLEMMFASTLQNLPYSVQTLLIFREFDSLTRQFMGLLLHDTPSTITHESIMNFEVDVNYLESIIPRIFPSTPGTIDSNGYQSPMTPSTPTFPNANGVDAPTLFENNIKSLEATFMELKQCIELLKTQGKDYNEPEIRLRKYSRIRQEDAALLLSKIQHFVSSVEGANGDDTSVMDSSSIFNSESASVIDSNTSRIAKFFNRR

[4] = target: T4, Sec8 (S. cerevisiae, UniProt P32855 1-1065)
T4 sequence: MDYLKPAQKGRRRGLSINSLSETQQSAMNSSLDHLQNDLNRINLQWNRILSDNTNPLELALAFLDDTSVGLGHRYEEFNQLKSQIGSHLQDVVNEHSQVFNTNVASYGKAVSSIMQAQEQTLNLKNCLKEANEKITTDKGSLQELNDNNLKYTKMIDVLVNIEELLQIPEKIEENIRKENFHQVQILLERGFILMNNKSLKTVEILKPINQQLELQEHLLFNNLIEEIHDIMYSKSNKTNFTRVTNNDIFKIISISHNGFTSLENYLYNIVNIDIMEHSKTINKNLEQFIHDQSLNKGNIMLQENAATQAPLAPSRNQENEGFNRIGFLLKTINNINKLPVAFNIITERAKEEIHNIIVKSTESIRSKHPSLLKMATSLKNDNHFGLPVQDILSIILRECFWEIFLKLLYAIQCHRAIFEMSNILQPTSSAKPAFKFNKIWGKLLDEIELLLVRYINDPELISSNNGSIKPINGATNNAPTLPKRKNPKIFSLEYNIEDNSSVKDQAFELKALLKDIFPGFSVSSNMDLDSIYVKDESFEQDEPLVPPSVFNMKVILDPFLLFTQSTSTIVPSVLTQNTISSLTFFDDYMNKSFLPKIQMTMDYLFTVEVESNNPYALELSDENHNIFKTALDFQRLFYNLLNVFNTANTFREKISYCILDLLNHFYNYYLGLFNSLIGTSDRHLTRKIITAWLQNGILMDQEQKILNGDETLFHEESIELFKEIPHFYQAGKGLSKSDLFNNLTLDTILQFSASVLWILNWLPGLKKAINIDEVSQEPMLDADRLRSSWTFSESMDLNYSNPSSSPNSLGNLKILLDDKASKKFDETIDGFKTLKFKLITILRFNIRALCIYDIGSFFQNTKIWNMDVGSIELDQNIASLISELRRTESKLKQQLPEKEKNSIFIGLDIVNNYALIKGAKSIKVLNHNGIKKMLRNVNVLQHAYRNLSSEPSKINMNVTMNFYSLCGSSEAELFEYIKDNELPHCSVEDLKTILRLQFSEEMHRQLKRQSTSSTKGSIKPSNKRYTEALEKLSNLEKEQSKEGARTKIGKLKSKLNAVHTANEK

Binder	binding result [1]	binding result [2]	binding result [3]	binding result [4]
B1	binds	binds		
B2	binds		binds	binds
